According to the supplement of paper PMC9112550, “Optimization of the antimicrobial peptide Bac7 by deep mutational scanning” (BMC Biology, 2022):

The sequences below were run on Escherichia coli TOP10 (assay: shrunken log2 fold change of peptide-encoding DNA abundance (4.5 h post-induction vs induction); higher = less antimicrobial activity (less host growth inhibition)). Conditions: time post-induction: 4.5 h; library: site-saturation at positions 5, 18, 19, 20.
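Note: peptides expressed intracellularly from a pBAD plasmid library in pooled LB shake-flask culture, induced with 0.3% L-arabinose, DNA abundance read by NGS, three biological replicates, DESeq2 with apeglm shrinkage.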

Sequence | shrunken log2 fold change
RRIRLRPPRLPRPRPRPCSGPRP | 0.0583
RRIRCRPPRLPRPRPRPSPMPRP | 0.0865
RRIRVRPPRLPRPRPRPKYYPRP | -0.921
RRIRSRPPRLPRPRPRPHAWPRP | 0.149
RRIRLRPPRLPRPRPRPVECPRP | 0.0709
RRIRLRPPRLPRPRPRPLGGPRP | 0.157
RRIRMRPPRLPRPRPRPTQHPRP | 0.717
RRIRDRPPRLPRPRPRPLTRPRP | -0.00589
RRIRWRPPRLPRPRPRPKVIPRP | -0.0585
RRIRMRPPRLPRPRPRPTWLPRP | 0.266
RRIRPRPPRLPRPRPRPWVGPRP | 0.0889
RRIRHRPPRLPRPRPRPLCCPRP | -0.0675
RRIRHRPPRLPRPRPRPQIRPRP | -0.207
RRIRKRPPRLPRPRPRPRTQPRP | 0.605
RRIRQRPPRLPRPRPRPCQWPRP | -0.205
RRIRCRPPRLPRPRPRPMVVPRP | -0.0292
RRIRDRPPRLPRPRPRPGIWPRP | 0.252
RRIRSRPPRLPRPRPRPPDYPRP | -0.0864
RRIRIRPPRLPRPRPRPVPGPRP | -0.0459
RRIRYRPPRLPRPRPRPHDVPRP | -0.379
RRIRWRPPRLPRPRPRPPEAPRP | 0.428
RRIRNRPPRLPRPRPRPWVFPRP | -0.221
RRIRVRPPRLPRPRPRPYLPPRP | -0.453
RRIRYRPPRLPRPRPRPNKHPRP | -0.916
RRIRQRPPRLPRPRPRPKWHPRP | 0.48

Sequence | shrunken log2 fold change
RRIRSRPPRLPRPRPRPDCEPRP | 0.259
RRIRIRPPRLPRPRPRPRDKPRP | 0.115
RRIRNRPPRLPRPRPRPGNNPRP | -0.492
RRIRMRPPRLPRPRPRPHTLPRP | -0.119
RRIRYRPPRLPRPRPRPKKWPRP | -0.113
RRIRLRPPRLPRPRPRPCCPPRP | -0.196
RRIRPRPPRLPRPRPRPKCVPRP | 0.0688
RRIRLRPPRLPRPRPRPLNEPRP | -0.0224
RRIRLRPPRLPRPRPRPWVGPRP | 0.233
RRIRKRPPRLPRPRPRPAHWPRP | 0.719
RRIRRRPPRLPRPRPRPQCCPRP | 0.49
RRIRSRPPRLPRPRPRPILAPRP | -0.162
RRIRWRPPRLPRPRPRPPSHPRP | 0.163
RRIRQRPPRLPRPRPRPIQHPRP | 0.14
RRIRGRPPRLPRPRPRPAVVPRP | 0.488
RRIRYRPPRLPRPRPRPRIQPRP | -0.203
RRIRGRPPRLPRPRPRPYVAPRP | 0.0436
RRIRFRPPRLPRPRPRPYITPRP | -0.906
RRIRDRPPRLPRPRPRPERVPRP | 0.388
RRIRTRPPRLPRPRPRPIGQPRP | -0.0623
RRIRERPPRLPRPRPRPVLEPRP | -0.0875
RRIRERPPRLPRPRPRPYCRPRP | -0.394
RRIRFRPPRLPRPRPRPWQDPRP | -0.00804
RRIRHRPPRLPRPRPRPHSKPRP | -0.32
RRIRFRPPRLPRPRPRPSHVPRP | -0.281

Sequence | shrunken log2 fold change
RRIRRRPPRLPRPRPRPNPTPRP | 0.0244
RRIRRRPPRLPRPRPRPISDPRP | 0.136
RRIRQRPPRLPRPRPRPHNSPRP | -0.596
RRIRMRPPRLPRPRPRPPFMPRP | 0.296
RRIRFRPPRLPRPRPRPGMNPRP | -0.147
RRIRRRPPRLPRPRPRPWISPRP | -0.382
RRIRPRPPRLPRPRPRPEPCPRP | 0.215
RRIRFRPPRLPRPRPRPYDPPRP | -0.0102
RRIRARPPRLPRPRPRPPPSPRP | 1.26
RRIRHRPPRLPRPRPRPNKYPRP | -0.782
RRIRKRPPRLPRPRPRPYRRPRP | -0.105
RRIRCRPPRLPRPRPRPNLEPRP | -0.267
RRIRLRPPRLPRPRPRPQITPRP | -0.294
RRIRHRPPRLPRPRPRPVIAPRP | -0.134
RRIRIRPPRLPRPRPRPWGIPRP | -0.109
RRIRQRPPRLPRPRPRPGEQPRP | 0.201
RRIRKRPPRLPRPRPRPMRKPRP | 1.44
RRIRMRPPRLPRPRPRPEMIPRP | 2.2
RRIRLRPPRLPRPRPRPPGIPRP | -0.383
RRIRCRPPRLPRPRPRPYYQPRP | -1.14
RRIRRRPPRLPRPRPRPSNIPRP | -0.528
RRIRFRPPRLPRPRPRPFHCPRP | -0.102
RRIRTRPPRLPRPRPRPMNFPRP | -0.638
RRIRLRPPRLPRPRPRPDYGPRP | -0.23
RRIRKRPPRLPRPRPRPITIPRP | -0.165

Sequence | shrunken log2 fold change
RRIRDRPPRLPRPRPRPLYEPRP | -0.0254
RRIRSRPPRLPRPRPRPQTFPRP | -0.136
RRIRSRPPRLPRPRPRPPEPPRP | 0.373
RRIRTRPPRLPRPRPRPMIYPRP | -0.465
RRIRRRPPRLPRPRPRPHQKPRP | 0.474
RRIRPRPPRLPRPRPRPKNTPRP | -0.218
RRIRPRPPRLPRPRPRPQIIPRP | -0.447
RRIRERPPRLPRPRPRPCCFPRP | -0.248
RRIRFRPPRLPRPRPRPYNWPRP | -0.0539
RRIRSRPPRLPRPRPRPRCHPRP | -0.0928
RRIRIRPPRLPRPRPRPITQPRP | -0.186
RRIRCRPPRLPRPRPRPPIQPRP | 0.369
RRIRPRPPRLPRPRPRPHRMPRP | -0.465
RRIRFRPPRLPRPRPRPLQSPRP | 0.11
RRIRARPPRLPRPRPRPEDPPRP | 0.823
RRIRLRPPRLPRPRPRPRIGPRP | 0.0176
RRIRYRPPRLPRPRPRPECDPRP | -0.235
RRIRYRPPRLPRPRPRPPDHPRP | 0.0391
RRIRGRPPRLPRPRPRPYQKPRP | -0.00887
RRIRLRPPRLPRPRPRPCVFPRP | -0.13
RRIRPRPPRLPRPRPRPMFYPRP | -0.449
RRIRIRPPRLPRPRPRPEVAPRP | 0.218
RRIRCRPPRLPRPRPRPLFPPRP | -0.2
RRIRGRPPRLPRPRPRPELDPRP | 0.807
RRIRYRPPRLPRPRPRPFWLPRP | -0.0817

Sequence | shrunken log2 fold change
RRIRNRPPRLPRPRPRPFMEPRP | -0.167
RRIRHRPPRLPRPRPRPIVWPRP | -0.2
RRIRWRPPRLPRPRPRPTQMPRP | 0.59
RRIRMRPPRLPRPRPRPCWEPRP | -0.0572
RRIRPRPPRLPRPRPRPNFMPRP | 0.109
RRIRMRPPRLPRPRPRPWNKPRP | -0.535
RRIRLRPPRLPRPRPRPIWRPRP | 0.102
RRIRERPPRLPRPRPRPREFPRP | -0.0736
RRIRERPPRLPRPRPRPSVWPRP | 0.0602
RRIRPRPPRLPRPRPRPWFYPRP | -0.543
RRIRHRPPRLPRPRPRPASKPRP | -0.0351
RRIRHRPPRLPRPRPRPKTVPRP | -0.154
RRIRSRPPRLPRPRPRPHNAPRP | -0.197
RRIRERPPRLPRPRPRPLLCPRP | -0.183
RRIRMRPPRLPRPRPRPHCDPRP | -0.0833
RRIRGRPPRLPRPRPRPSCWPRP | 0.413
RRIRLRPPRLPRPRPRPKQWPRP | 0.176
RRIRFRPPRLPRPRPRPVSQPRP | 0.0413
RRIRFRPPRLPRPRPRPQTDPRP | -0.21
RRIRFRPPRLPRPRPRPQFWPRP | 0.206
RRIRCRPPRLPRPRPRPFSDPRP | -0.165
RRIRMRPPRLPRPRPRPPIWPRP | 0.512
RRIRWRPPRLPRPRPRPFTIPRP | -0.212
RRIRPRPPRLPRPRPRPMIDPRP | -0.16
RRIRFRPPRLPRPRPRPQQNPRP | 0.383

Sequence | shrunken log2 fold change
RRIRARPPRLPRPRPRPDVFPRP | 0.176
RRIRMRPPRLPRPRPRPRLHPRP | 0.721
RRIRGRPPRLPRPRPRPAAIPRP | 0.953
RRIRKRPPRLPRPRPRPCEWPRP | -0.0222
RRIRKRPPRLPRPRPRPQILPRP | -0.144
RRIRVRPPRLPRPRPRPHVTPRP | -0.304
RRIRSRPPRLPRPRPRPCCRPRP | -0.0822
RRIRIRPPRLPRPRPRPHDMPRP | -0.226
RRIRLRPPRLPRPRPRPTYCPRP | -1
RRIRVRPPRLPRPRPRPYCLPRP | -0.564
RRIRERPPRLPRPRPRPSVVPRP | -0.213
RRIRRRPPRLPRPRPRPYVPPRP | -0.241
RRIRDRPPRLPRPRPRPTGEPRP | 0.119
RRIRMRPPRLPRPRPRPQFYPRP | -0.263
RRIRTRPPRLPRPRPRPKTWPRP | -0.268
RRIRIRPPRLPRPRPRPTIAPRP | -0.327
RRIRVRPPRLPRPRPRPWRGPRP | 0.378
RRIRYRPPRLPRPRPRPYRAPRP | -0.0919
RRIRHRPPRLPRPRPRPGSTPRP | -0.681
RRIRKRPPRLPRPRPRPWNEPRP | -0.0249
RRIRTRPPRLPRPRPRPATSPRP | -0.12
RRIRKRPPRLPRPRPRPARDPRP | 1.1
RRIRLRPPRLPRPRPRPWGEPRP | -0.0317
RRIRYRPPRLPRPRPRPFTLPRP | -0.019
RRIRMRPPRLPRPRPRPLNYPRP | -0.124
